# US20110038894A1
# Target: human HLA-A24 and β2-microglobulin (human)
# Assay: MHC-peptide complex formation assay with human HLA-A24 and β2m (procedures of Example 1), sandwich ELISA, relative to positive control peptide
row,Binder,Relative binding (%)
1,"RFVWFFSGI [TAL6 peptide No. 6 of Table 2, …]",91.9%
2,"CYGKCARCI [TAL6 peptide No. 1 of Table 2, …]",126%
3,"HSLVGLALL [TAL6 peptide No. 2 of Table 2, …]",61.7%
4,"GYCVIVAAL [TAL6 peptide No. 8 of Table 2, …]",118%
5,"FFSGIVGGGL [TAL6 peptide No. 7 of Table 2, …]",72.4%
6,"KYASENHLS [TAL6 peptide No. 5 of Table 2, …]",64.6%
7,"LYFPNGETKY [TAL6 peptide No. 4 of Table 2, …]",85%

# Other lines, results leading:
row,Relative binding (%),Binder
1,25.3%,"GGIEFILCL [TAL6 peptide No. 16 of Table 2, …]"
2,111%,"QYLLDTSTW [TAL6 peptide No. 11 of Table 2, …]"
3,28%,"HIVEWNVSLF [TAL6 peptide No. 12 of Table 2, …]"
4,116%,"TFASTEGQYL [TAL6 peptide No. 10 of Table 2, …]"
5,22.2%,"EWNVSLFSIL [TAL6 peptide No. 15 of Table 2, …]"
6,74%,"EWNVSLFSI [TAL6 peptide No. 14 of Table 2, …]"
7,14.8%,"GGIEFILCLI [TAL6 peptide No. 17 of Table 2, …]"
8,41%,"IVEWNVSLF [TAL6 peptide No. 13 of Table 2, …]"
9,49.2%,"TFASTEGQY [TAL6 peptide No. 9 of Table 2, …]"
